Assay [1] has as its target K1735 M4 tumor cells (melanoma cells). Briefly: adhesion of 3H-thymidine-labelled K1735 M4 cells to peptide-coated Immulon plates, 1 h at 37 °C.
Assay [2] shares this target. Briefly: adhesion of 3H-thymidine-labelled K1735 M4 cells to peptide-coated Immulon plates, 1 h at 37 °C; one mole of SSP counted as three chains.

Data on three molecules can be found in US5726243.

Some results are limits rather than exact numbers.

Turning to “THP-2, branched triple-helical polypeptide incorporating residues 1263-1277 from α1(IV) collagen”, in assay [1], the peptide concentration at half maximal melanoma cell adhesion came out at 1.12 µM.

As for “THP-3, branched triple-helical polypeptide of (Gly-Pro-Hyp)8”, the peptide concentration at half maximal melanoma cell adhesion in assay [1] was more than 100 µM.

The molecule GVKGDKGNPGWPGAP [single-stranded peptide (SSP) incorporating residues 1263-1277 from the α1 chain of type IV collagen] showed a peptide concentration at half maximal melanoma cell adhesion in assay [2] of 170 µM.
